This is an account of results in patent US20240263208A1, “CYTOCHROME P450 ENZYME” (HYPHA DISCOVERY LTD., priority 2021, published 2024).

A short description of series [1]: Oxidase activity testing, lyophilised recombinant P450/ferredoxin SeuF08/ferredoxin reductase SCF15A against ambroxide. It is filed as biochemical. The method, then:
(§1) Lyophilised material of recombinant P450, ferredoxin and ferredoxin reductase proteins was made as described in Example 4 and reconstituted in high purity water to the original volume. Biocatalysis was performed with shaking incubation at 27° C. in the following conditions: 100 mM potassium phosphate pH 8.0, 5 mM MgCl2 (both present in the reconstituted enzyme preparation) and 0.1 mg/ml substrate compound such as ambroxide (Sigma-Aldrich, UK), carbamazepine (Sigma-Aldrich, UK), diclofenac (Sigma-Aldrich, UK), tivantinib (MedChemtronica, Sweden), clarithromycin (Tokyo Chemical Industry, Japan), sclareol (Sigma-Aldrich, UK), celecoxib (LC Laboratories, USA), buparvaquone (Sigma-Aldrich, UK), BIRB796 (MedChemExpress, USA), vanoxerine (CiVentiChem, USA), valsartan (Tokyo Chemical Industry, Japan), ruxolitinib (LC Laboratories, USA), perindopril (Selleckchem, USA), solifenacin (Key Organics, UK), 7-ethoxycoumarin (Tokyo Chemical Industry, Japan), tofacitinib (LC Laboratories, USA), ebastine (Key Organics, UK), efavirenz (Key Organics, UK), propanalol (Sigma-Aldrich, UK) and tolbutamide (Key Organics, UK).
(§2) Concentrations of P450, ferredoxin and ferredoxin reductase were as extracted (Example 4). Reactions were initiated by addition of 10× stock of cofactor mixture (50 mM G6P, 10 mM NADP+, 10 UN/ml G6PDH) to provide a final volume of e.g., 10 μl to 90 μl for 100 μl total reaction volumes. After 16-20 hours, reactions were extracted with an equal volume of acetonitrile, centrifuged to remove precipitated proteins and conversion assessed by UPLC-MS analysis.
(§3) UPLC Data were Obtained as Follows: • Column: Acquity UPLC BEH Shield RP18 1.7 μm 2.1 mm i.d. 50 mm length • Solvents: H2O, B: Acetonitrile, both with 0.1% Formic acid • Flow rate: 1.0 ml/min • Detector: Waters Acquity UPLC PDA (UV-Vis detection) and Waters Acquity UPLC QDA (MS)
(§4) To confirm the identities of reaction products where known, their chromatographic retention time, mass and ultraviolet spectra were compared with those of authentic metabolite standards.
Representative results for the % conversions of ambroxide to oxidised (+16 Da) products for single point mutants at position T109 are shown in Table 2 below.

Series [2] can be described thus: Oxidase activity testing against carbamazepine. It is filed as biochemical. The following applies: for +16 Da (1.18 min) 253 m/z: 2-hydroxycarbamazepine; for +16 Da (1.18 min) 253 m/z / +16 Da (1.14 min) 253 m/z / Parent (1.31 min) 237 m/z: relative MS peak area; for +16 Da (1.14 min) 253 m/z: carbamazepine epoxide; for Parent (1.31 min) 237 m/z: remaining carbamazepine, 0.1 mg/ml, 27° C., 16-20 hours; for Average % conversion: substrate carbamazepine, relative MS peak areas. As for the experimental part:
as §1, §2, §3, §4
Representative results for the % conversions of carbamazepine to oxidised (+16 Da) products for single point mutants at position L198 are shown in Table 3 below.

The mark [3] stands for this setting: oxidised ambroxide product, relative MS peak area.

B1: SeuC10M1: P450SeuC10 with T109R mutation, SEQ ID NO: 6 (protein)
chain: MKIGTTHLTRLRGLSMTELTDITGPAAQAETVAFPQDRTCPYHPPTGYDPLRDGRPLSRVTLYDGREVWLVTAQATARALLADPRLSTDRRRDGFPVPTPRFAAGRDRRLALLGLDDPEHHRQRRLLIPSFTLKRATAQRPWIQRIVDELLDAMIARGPVADLVSAFALPVPSMVICELLGVPYADHEFFEEQSRRLLRGPTGADTTDARDRLEAYLGDLIDAKAKEAEPGDGILDDLVHNRLRAGELDRSVLVSLAVILLVAGHETTANMISLGTYTLLQHPERLAELRADPSLLPAVVEELLRMLSIAEGLQRLALEDIEIDGITIRAGEGVLFSTSVINRDTAVYEDPDDLDFHRADRHHVAFGFGIHQCLGQNLARAELEIALGSLFTRLPGLRLAAPAEEIPFKPGDTVQGMLELPVTW
modifications: SeuC10M1
Regarding B1, in series [1] (setting [3]), the “+16 Da (1.50 min) 253 m/z” value is 40.7%, the “+16 Da (1.60 min) 253 m/z” value was 0.0% and the “+16 Da (2.04 min) 253 m/z” value was 0.0%. For the same molecule, the “Ambroxide (2.22 min) 237 m/z” value in series [1] (remaining substrate, relative MS peak area, 0.1 mg/ml ambroxide, 27° C., 16-20 hours) came out at 59.3%. Also, in series [1] (substrate ambroxide, relative MS peak areas), the Average % conversion was found to be 40.7%.

B2: SeuC10M16: P450SeuC10 with L198N mutation, SEQ ID NO: 36 (protein)
chain: MKIGTTHLTRLRGLSMTELTDITGPAAQAETVAFPQDRTCPYHPPTGYDPLRDGRPLSRVTLYDGREVWLVTAQATARALLADPRLSTDRRRDGFPVPTPRFAAGRDRTLALLGLDDPEHHRQRRLLIPSFTLKRATAQRPWIQRIVDELLDAMIARGPVADLVSAFALPVPSMVICELLGVPYADHEFFEEQSRRLNRGPTGADTTDARDRLEAYLGDLIDAKAKEAEPGDGILDDLVHNRLRAGELDRSVLVSLAVILLVAGHETTANMISLGTYTLLQHPERLAELRADPSLLPAVVEELLRMLSIAEGLQRLALEDIEIDGITIRAGEGVLFSTSVINRDTAVYEDPDDLDFHRADRHHVAFGFGIHQCLGQNLARAELEIALGSLFTRLPGLRLAAPAEEIPFKPGDTVQGMLELPVTW
modifications: SeuC10M16
For B2, in series [2], the “+16 Da (1.18 min) 253 m/z” value is on record as 0.0%, the “+16 Da (1.14 min) 253 m/z” value stood at 1.9%, the “Parent (1.31 min) 237 m/z” value stood at 98.1% and the Average % conversion stood at 1.9%.

B3: SeuC10M12: P450SeuC10 with L198M mutation, SEQ ID NO: 28 (protein)
chain: MKIGTTHLTRLRGLSMTELTDITGPAAQAETVAFPQDRTCPYHPPTGYDPLRDGRPLSRVTLYDGREVWLVTAQATARALLADPRLSTDRRRDGFPVPTPRFAAGRDRTLALLGLDDPEHHRQRRLLIPSFTLKRATAQRPWIQRIVDELLDAMIARGPVADLVSAFALPVPSMVICELLGVPYADHEFFEEQSRRLMRGPTGADTTDARDRLEAYLGDLIDAKAKEAEPGDGILDDLVHNRLRAGELDRSVLVSLAVILLVAGHETTANMISLGTYTLLQHPERLAELRADPSLLPAVVEELLRMLSIAEGLQRLALEDIEIDGITIRAGEGVLFSTSVINRDTAVYEDPDDLDFHRADRHHVAFGFGIHQCLGQNLARAELEIALGSLFTRLPGLRLAAPAEEIPFKPGDTVQGMLELPVTW
modifications: SeuC10M12
Consider B3, for which, in series [2], the “+16 Da (1.18 min) 253 m/z” value is reported as 0.0%, the “+16 Da (1.14 min) 253 m/z” value is reported as 40.5%, the “Parent (1.31 min) 237 m/z” value worked out at 59.5% and the Average % conversion is 40.5%.

B4: SeuC10M17: P450SeuC10 with L198D mutation, SEQ ID NO: 38 (protein)
chain: MKIGTTHLTRLRGLSMTELTDITGPAAQAETVAFPQDRTCPYHPPTGYDPLRDGRPLSRVTLYDGREVWLVTAQATARALLADPRLSTDRRRDGFPVPTPRFAAGRDRTLALLGLDDPEHHRQRRLLIPSFTLKRATAQRPWIQRIVDELLDAMIARGPVADLVSAFALPVPSMVICELLGVPYADHEFFEEQSRRLDRGPTGADTTDARDRLEAYLGDLIDAKAKEAEPGDGILDDLVHNRLRAGELDRSVLVSLAVILLVAGHETTANMISLGTYTLLQHPERLAELRADPSLLPAVVEELLRMLSIAEGLQRLALEDIEIDGITIRAGEGVLFSTSVINRDTAVYEDPDDLDFHRADRHHVAFGFGIHQCLGQNLARAELEIALGSLFTRLPGLRLAAPAEEIPFKPGDTVQGMLELPVTW
modifications: SeuC10M17
Regarding B4, in series [2], the “+16 Da (1.18 min) 253 m/z” value is 0.0%, the “+16 Da (1.14 min) 253 m/z” value is recorded as 3.2%, the “Parent (1.31 min) 237 m/z” value turned out to be 96.8% and the Average % conversion is 3.2%.

B5: SeuC10M14: P450SeuC10 with L198V mutation, SEQ ID NO: 32 (protein)
chain: MKIGTTHLTRLRGLSMTELTDITGPAAQAETVAFPQDRTCPYHPPTGYDPLRDGRPLSRVTLYDGREVWLVTAQATARALLADPRLSTDRRRDGFPVPTPRFAAGRDRTLALLGLDDPEHHRQRRLLIPSFTLKRATAQRPWIQRIVDELLDAMIARGPVADLVSAFALPVPSMVICELLGVPYADHEFFEEQSRRLVRGPTGADTTDARDRLEAYLGDLIDAKAKEAEPGDGILDDLVHNRLRAGELDRSVLVSLAVILLVAGHETTANMISLGTYTLLQHPERLAELRADPSLLPAVVEELLRMLSIAEGLQRLALEDIEIDGITIRAGEGVLFSTSVINRDTAVYEDPDDLDFHRADRHHVAFGFGIHQCLGQNLARAELEIALGSLFTRLPGLRLAAPAEEIPFKPGDTVQGMLELPVTW
modifications: SeuC10M14
In the case of B5, in series [2], the “+16 Da (1.18 min) 253 m/z” value was 0.0%, the “+16 Da (1.14 min) 253 m/z” value is on record as 43.7%, the “Parent (1.31 min) 237 m/z” value stood at 56.3% and the Average % conversion is 43.7%.

B6: SeuC10M8: P450SeuC10 with L198I mutation, SEQ ID NO: 20 (protein)
chain: MKIGTTHLTRLRGLSMTELTDITGPAAQAETVAFPQDRTCPYHPPTGYDPLRDGRPLSRVTLYDGREVWLVTAQATARALLADPRLSTDRRRDGFPVPTPRFAAGRDRTLALLGLDDPEHHRQRRLLIPSFTLKRATAQRPWIQRIVDELLDAMIARGPVADLVSAFALPVPSMVICELLGVPYADHEFFEEQSRRLIRGPTGADTTDARDRLEAYLGDLIDAKAKEAEPGDGILDDLVHNRLRAGELDRSVLVSLAVILLVAGHETTANMISLGTYTLLQHPERLAELRADPSLLPAVVEELLRMLSIAEGLQRLALEDIEIDGITIRAGEGVLFSTSVINRDTAVYEDPDDLDFHRADRHHVAFGFGIHQCLGQNLARAELEIALGSLFTRLPGLRLAAPAEEIPFKPGDTVQGMLELPVTW
modifications: SeuC10M8
In the case of B6, in series [2], the “+16 Da (1.18 min) 253 m/z” value was 0.0%, the “+16 Da (1.14 min) 253 m/z” value was 35.3%, the “Parent (1.31 min) 237 m/z” value is reported as 64.7% and the Average % conversion stood at 35.3%.

B7: SeuC10M19: P450SeuC10 with L198Y mutation, SEQ ID NO: 42 (protein)
chain: MKIGTTHLTRLRGLSMTELTDITGPAAQAETVAFPQDRTCPYHPPTGYDPLRDGRPLSRVTLYDGREVWLVTAQATARALLADPRLSTDRRRDGFPVPTPRFAAGRDRTLALLGLDDPEHHRQRRLLIPSFTLKRATAQRPWIQRIVDELLDAMIARGPVADLVSAFALPVPSMVICELLGVPYADHEFFEEQSRRLYRGPTGADTTDARDRLEAYLGDLIDAKAKEAEPGDGILDDLVHNRLRAGELDRSVLVSLAVILLVAGHETTANMISLGTYTLLQHPERLAELRADPSLLPAVVEELLRMLSIAEGLQRLALEDIEIDGITIRAGEGVLFSTSVINRDTAVYEDPDDLDFHRADRHHVAFGFGIHQCLGQNLARAELEIALGSLFTRLPGLRLAAPAEEIPFKPGDTVQGMLELPVTW
modifications: SeuC10M19
As for B7, in series [2], the “+16 Da (1.18 min) 253 m/z” value amounted to 0.0%, the “+16 Da (1.14 min) 253 m/z” value came to 3.9%, the “Parent (1.31 min) 237 m/z” value is listed as 96.1% and the Average % conversion was found to be 3.8%.

B8: SeuC10M18: P450SeuC10 with L198H mutation, SEQ ID NO: 40 (protein)
chain: MKIGTTHLTRLRGLSMTELTDITGPAAQAETVAFPQDRTCPYHPPTGYDPLRDGRPLSRVTLYDGREVWLVTAQATARALLADPRLSTDRRRDGFPVPTPRFAAGRDRTLALLGLDDPEHHRQRRLLIPSFTLKRATAQRPWIQRIVDELLDAMIARGPVADLVSAFALPVPSMVICELLGVPYADHEFFEEQSRRLHRGPTGADTTDARDRLEAYLGDLIDAKAKEAEPGDGILDDLVHNRLRAGELDRSVLVSLAVILLVAGHETTANMISLGTYTLLQHPERLAELRADPSLLPAVVEELLRMLSIAEGLQRLALEDIEIDGITIRAGEGVLFSTSVINRDTAVYEDPDDLDFHRADRHHVAFGFGIHQCLGQNLARAELEIALGSLFTRLPGLRLAAPAEEIPFKPGDTVQGMLELPVTW
modifications: SeuC10M18
Regarding B8, in series [2], the “+16 Da (1.18 min) 253 m/z” value is given as 0.0%, the “+16 Da (1.14 min) 253 m/z” value turned out to be 14.6%, the “Parent (1.31 min) 237 m/z” value stood at 85.4% and the Average % conversion was 14.6%.
